From patent US20180118786A1 (published 2018)
Like-named read-outs stand apart in the source and are kept apart here. Each block holds one binder with its values, some of them ahead of it. Starred links: 1 amine or outer side, 2 acyl side, 3 side chain; linkers in the order of their positions; H or OH if unused. Positions of bridges follow the written chain, without caps; N, C: chain ends. Non-standard residues stand in square brackets, D forms with d. No end group written: not given here. TATA = O=C(CC[*:1])N1CN(C(=O)CC[*:2])CN(C(=O)CC[*:3])C1; Phe(4-guanidino) = N=C(N)Nc1ccc(C[C@H](N)C(=O)O)cc1; hArg = N=C(N)NCCCC[C@H](N)C(=O)O; Agb = N=C(N)NCC[C@H](N)C(=O)O; hLys = NCCCCC[C@H](N)C(=O)O

Columns and labels:
Test in all cases: enzyme inhibition
[1] = target: T1, human β-FXIIa (HFXIIAB; Molecular Innovations) (human, UniProt P00748 354-362; P00748 373-615)
T1 chain 1: NGPLSCGQR
T1 chain 2: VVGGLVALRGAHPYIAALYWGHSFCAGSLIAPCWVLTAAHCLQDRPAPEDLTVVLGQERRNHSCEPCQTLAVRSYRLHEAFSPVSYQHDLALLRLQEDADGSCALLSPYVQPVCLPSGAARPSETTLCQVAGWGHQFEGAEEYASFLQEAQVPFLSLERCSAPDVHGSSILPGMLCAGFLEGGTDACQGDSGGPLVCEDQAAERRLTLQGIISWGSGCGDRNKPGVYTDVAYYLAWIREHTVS

[2] = target: T1, human β-FXIIa (HFXIIAB; Molecular …)
[3] = target: T1, human β-FXIIa (HFXIIAB; Molecular …)
[4] = target: T1, human β-FXIIa (HFXIIAB; Molecular …)

Ki [1]: 231 nM
B1: peptide 64 (FXII618, Arg1 to isoleucine) (peptide)
peptide: ICFRLPCRQLRCR-NH2
modifications: linker 2-7-12 via TATA; N-terminus assumed
SMILES: CC[C@H](C)[C@H](N)C(=O)N[C@H]1CSCCC(=O)N2CN3CN(C2)C(=O)CCSC[C@H](NC(=O)[C@@H]2CCCN2C(=O)[C@H](CC(C)C)NC(=O)[C@H](CCCNC(=N)N)NC(=O)[C@H](Cc2ccccc2)NC1=O)C(=O)N[C@@H](CCCNC(=N)N)C(=O)N[C@@H](CCC(N)=O)C(=O)N[C@@H](CC(C)C)C(=O)N[C@@H](CCCNC(=N)N)C(=O)N[C@H](C(=O)N[C@@H](CCCNC(=N)N)C(N)=O)CSCCC3=O

Ki [2]: 364 nM
Binder: RCFRLPCRQMRCR [Methionine (27), Leu10]

Ki [3]: 336 nM
B2: peptide 6 (peptide 2, Phe3 to alanine) (peptide)
peptide: RCARLPCRQLRCRW-NH2
modifications: linker 2-7-12 via TATA; N-terminus assumed
SMILES: CC(C)C[C@@H]1NC(=O)[C@H](CCC(N)=O)NC(=O)[C@H](CCCNC(=N)N)NC(=O)[C@@H]2CSCCC(=O)N3CN(CN(C3)C(=O)CCSC[C@H](NC(=O)[C@@H](N)CCCNC(=N)N)C(=O)N[C@@H](C)C(=O)N[C@@H](CCCNC(=N)N)C(=O)N[C@@H](CC(C)C)C(=O)N3CCC[C@H]3C(=O)N2)C(=O)CCSC[C@@H](C(=O)N[C@@H](CCCNC(=N)N)C(=O)N[C@@H](Cc2c[nH]c3ccccc23)C(N)=O)NC(=O)[C@H](CCCNC(=N)N)NC1=O

Ki [1]: 177 nM
B3: peptide 66 (FXII618, Arg1 to alanine) (peptide)
peptide: ACFRLPCRQLRCR-NH2
modifications: linker 2-7-12 via TATA; N-terminus assumed
SMILES: CC(C)C[C@@H]1NC(=O)[C@H](CCC(N)=O)NC(=O)[C@H](CCCNC(=N)N)NC(=O)[C@@H]2CSCCC(=O)N3CN(CN(C3)C(=O)CCSC[C@@H](C(=O)N[C@@H](CCCNC(=N)N)C(N)=O)NC(=O)[C@H](CCCNC(=N)N)NC1=O)C(=O)CCSC[C@H](NC(=O)[C@H](C)N)C(=O)N[C@@H](Cc1ccccc1)C(=O)N[C@@H](CCCNC(=N)N)C(=O)N[C@@H](CC(C)C)C(=O)N1CCC[C@H]1C(=O)N2

Ki [4]: 397 nM
Binder: H-RCF[Agb]LPCRQLRCRW-NH2 (linker 2-7-12 via TATA) [peptide 40 (peptide 2, Arg4 to norarginine)]

Ki [3]: 2010 nM
B4: peptide 8 (peptide 2, Phe3 to isoleucine) (peptide)
peptide: RCIRLPCRQLRCRW-NH2
modifications: linker 2-7-12 via TATA; N-terminus assumed
SMILES: CC[C@H](C)[C@@H]1NC(=O)[C@@H](NC(=O)[C@@H](N)CCCNC(=N)N)CSCCC(=O)N2CN3CN(C2)C(=O)CCSC[C@H](NC(=O)[C@@H]2CCCN2C(=O)[C@H](CC(C)C)NC(=O)[C@H](CCCNC(=N)N)NC1=O)C(=O)N[C@@H](CCCNC(=N)N)C(=O)N[C@@H](CCC(N)=O)C(=O)N[C@@H](CC(C)C)C(=O)N[C@@H](CCCNC(=N)N)C(=O)N[C@H](C(=O)N[C@@H](CCCNC(=N)N)C(=O)N[C@@H](Cc1c[nH]c2ccccc12)C(N)=O)CSCCC3=O

Ki [2]: 199 nM
B5: peptide 26 (peptide 2, Leu10 to isoleucine) (peptide)
peptide: RCFRLPCRQIRCRW-NH2
modifications: linker 2-7-12 via TATA; N-terminus assumed
SMILES: CC[C@H](C)[C@@H]1NC(=O)[C@H](CCC(N)=O)NC(=O)[C@H](CCCNC(=N)N)NC(=O)[C@@H]2CSCCC(=O)N3CN(CN(C3)C(=O)CCSC[C@H](NC(=O)[C@@H](N)CCCNC(=N)N)C(=O)N[C@@H](Cc3ccccc3)C(=O)N[C@@H](CCCNC(=N)N)C(=O)N[C@@H](CC(C)C)C(=O)N3CCC[C@H]3C(=O)N2)C(=O)CCSC[C@@H](C(=O)N[C@@H](CCCNC(=N)N)C(=O)N[C@@H](Cc2c[nH]c3ccccc23)C(N)=O)NC(=O)[C@H](CCCNC(=N)N)NC1=O

Ki [4]: 181 nM
Binder: RCF[hArg]LPCRQLRCRW-NH2 (linker 2-7-12 via TATA) [peptide 39 (peptide 2, Arg4 to homoarginine)]

Ki [4]: 131 nM
Binder: RCF[hLys]LPCRQLRCRW-NH2 (linker 2-7-12 via TATA) [peptide 38 (peptide 2, Arg4 to homolysine)]

Ki [1]: 18.5 nM
B6: FXII618 variant with R in position 1 replaced by homolysine (peptide)
peptide: [hLys]CFRLPCRQLRCR-NH2
modifications: linker 2-7-12 via TATA; N-terminus assumed
SMILES: CC(C)C[C@@H]1NC(=O)[C@H](CCC(N)=O)NC(=O)[C@H](CCCNC(=N)N)NC(=O)[C@@H]2CSCCC(=O)N3CN(CN(C3)C(=O)CCSC[C@H](NC(=O)[C@@H](N)CCCCCN)C(=O)N[C@@H](Cc3ccccc3)C(=O)N[C@@H](CCCNC(=N)N)C(=O)N[C@@H](CC(C)C)C(=O)N3CCC[C@H]3C(=O)N2)C(=O)CCSC[C@@H](C(=O)N[C@@H](CCCNC(=N)N)C(N)=O)NC(=O)[C@H](CCCNC(=N)N)NC1=O

Ki [4]: 976 nM
B7: peptide 41 (peptide 2, Arg4 to 4-guanidinophenylalanine) (peptide)
peptide: H-RCF[Phe(4-guanidino)]LPCRQLRCRW-NH2
modifications: linker 2-7-12 via TATA
SMILES: CC(C)C[C@@H]1NC(=O)[C@H](CCC(N)=O)NC(=O)[C@H](CCCNC(=N)N)NC(=O)[C@@H]2CSCCC(=O)N3CN(CN(C3)C(=O)CCSC[C@H](NC(=O)[C@@H](N)CCCNC(=N)N)C(=O)N[C@@H](Cc3ccccc3)C(=O)N[C@@H](Cc3ccc(NC(=N)N)cc3)C(=O)N[C@@H](CC(C)C)C(=O)N3CCC[C@H]3C(=O)N2)C(=O)CCSC[C@@H](C(=O)N[C@@H](CCCNC(=N)N)C(=O)N[C@@H](Cc2c[nH]c3ccccc23)C(N)=O)NC(=O)[C@H](CCCNC(=N)N)NC1=O

Ki [2]: 2660 nM
Binder: RCFRLPCRQARCR [Alanine (30), Leu10]

Ki [2]: 830 nM
Binder: RCFRLPCRQVRCR [Valine (25), Leu10]

Ki [3]: 413 nM
B8: peptide 7 (peptide 2, Phe3 to valine) (peptide)
peptide: RCVRLPCRQLRCRW-NH2
modifications: linker 2-7-12 via TATA; N-terminus assumed
SMILES: CC(C)C[C@@H]1NC(=O)[C@H](CCC(N)=O)NC(=O)[C@H](CCCNC(=N)N)NC(=O)[C@@H]2CSCCC(=O)N3CN(CN(C3)C(=O)CCSC[C@H](NC(=O)[C@@H](N)CCCNC(=N)N)C(=O)N[C@@H](C(C)C)C(=O)N[C@@H](CCCNC(=N)N)C(=O)N[C@@H](CC(C)C)C(=O)N3CCC[C@H]3C(=O)N2)C(=O)CCSC[C@@H](C(=O)N[C@@H](CCCNC(=N)N)C(=O)N[C@@H](Cc2c[nH]c3ccccc23)C(N)=O)NC(=O)[C@H](CCCNC(=N)N)NC1=O

Ki [1]: 287 nM
B9: peptide 65 (FXII618, Arg1 to valine) (peptide)
peptide: VCFRLPCRQLRCR-NH2
modifications: linker 2-7-12 via TATA; N-terminus assumed
SMILES: CC(C)C[C@@H]1NC(=O)[C@H](CCC(N)=O)NC(=O)[C@H](CCCNC(=N)N)NC(=O)[C@@H]2CSCCC(=O)N3CN(CN(C3)C(=O)CCSC[C@H](NC(=O)[C@@H](N)C(C)C)C(=O)N[C@@H](Cc3ccccc3)C(=O)N[C@@H](CCCNC(=N)N)C(=O)N[C@@H](CC(C)C)C(=O)N3CCC[C@H]3C(=O)N2)C(=O)CCSC[C@@H](C(=O)N[C@@H](CCCNC(=N)N)C(N)=O)NC(=O)[C@H](CCCNC(=N)N)NC1=O
